# Results published in the supplement of paper PMC9112550, “Optimization of the antimicrobial peptide Bac7 by deep mutational scanning” (BMC Biology, 2022).
# System: Escherichia coli TOP10
# Assay: shrunken log2 fold change of peptide-encoding DNA abundance (4.5 h post-induction vs induction); higher = less antimicrobial activity (less host growth inhibition)
# Conditions: time post-induction: 4.5 h; library: site-saturation at positions 5, 18, 19, 20
# 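Also: peptides expressed intracellularly from a pBAD plasmid library in pooled LB shake-flask culture, induced with 0.3% L-arabinose, DNA abundance read by NGS, three biological replicates, DESeq2 with apeglm shrinkage.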
row,Sequence,shrunken log2 fold change
1,RRIRMRPPRLPRPRPRPWLTPRP,0.158
2,RRIRMRPPRLPRPRPRPWLYPRP,-0.0206
3,RRIRMRPPRLPRPRPRPWMYPRP,-0.0417
4,RRIRMRPPRLPRPRPRPWPFPRP,0.0942
5,RRIRMRPPRLPRPRPRPWPYPRP,0.213
6,RRIRMRPPRLPRPRPRPWRGPRP,0.497
7,RRIRMRPPRLPRPRPRPWTHPRP,-0.136
8,RRIRMRPPRLPRPRPRPWVRPRP,0.0882
9,RRIRMRPPRLPRPRPRPWVSPRP,-0.0423
10,RRIRMRPPRLPRPRPRPWYLPRP,-0.0736
11,RRIRMRPPRLPRPRPRPWYNPRP,-0.044
12,RRIRMRPPRLPRPRPRPYDVPRP,-0.562
13,RRIRMRPPRLPRPRPRPYFAPRP,-0.296
14,RRIRMRPPRLPRPRPRPYFEPRP,-0.318
15,RRIRMRPPRLPRPRPRPYFRPRP,-0.575
16,RRIRMRPPRLPRPRPRPYGDPRP,0.0122
17,RRIRMRPPRLPRPRPRPYGLPRP,-0.248
18,RRIRMRPPRLPRPRPRPYGMPRP,0.162
19,RRIRMRPPRLPRPRPRPYHDPRP,-0.256
20,RRIRMRPPRLPRPRPRPYHRPRP,-0.141
21,RRIRMRPPRLPRPRPRPYKQPRP,-0.000436
22,RRIRMRPPRLPRPRPRPYLAPRP,-0.0134

row,Sequence,shrunken log2 fold change
1,RRIRMRPPRLPRPRPRPYNKPRP,-0.561
2,RRIRMRPPRLPRPRPRPYPIPRP,0.0414
3,RRIRMRPPRLPRPRPRPYPSPRP,-0.0577
4,RRIRMRPPRLPRPRPRPYQCPRP,-0.118
5,RRIRMRPPRLPRPRPRPYRKPRP,-0.432
6,RRIRMRPPRLPRPRPRPYRRPRP,0.0224
7,RRIRMRPPRLPRPRPRPYSAPRP,0.0186
8,RRIRMRPPRLPRPRPRPYTVPRP,0.0221
9,RRIRMRPPRLPRPRPRPYWCPRP,-0.0737
10,RRIRMRPPRLPRPRPRPYWPPRP,-0.311
11,RRIRMRPPRLPRPRPRPYYCPRP,-0.603
12,RRIRNRPPRLPRPRPRPACGPRP,0.547
13,RRIRNRPPRLPRPRPRPADGPRP,0.085
14,RRIRNRPPRLPRPRPRPAFGPRP,-0.189
15,RRIRNRPPRLPRPRPRPAGYPRP,-0.0215
16,RRIRNRPPRLPRPRPRPAHRPRP,0.264
17,RRIRNRPPRLPRPRPRPAKVPRP,-0.0027
18,RRIRNRPPRLPRPRPRPALCPRP,-0.0208
19,RRIRNRPPRLPRPRPRPALEPRP,0.025
20,RRIRNRPPRLPRPRPRPALTPRP,-0.158
21,RRIRNRPPRLPRPRPRPALWPRP,-0.15
22,RRIRNRPPRLPRPRPRPAMEPRP,0.243

row,Sequence,shrunken log2 fold change
1,RRIRNRPPRLPRPRPRPAMGPRP,0.288
2,RRIRNRPPRLPRPRPRPANMPRP,-0.205
3,RRIRNRPPRLPRPRPRPANWPRP,0.182
4,RRIRNRPPRLPRPRPRPAPQPRP,0.182
5,RRIRNRPPRLPRPRPRPARQPRP,0.304
6,RRIRNRPPRLPRPRPRPASCPRP,-0.233
7,RRIRNRPPRLPRPRPRPASDPRP,0.278
8,RRIRNRPPRLPRPRPRPASKPRP,0.0111
9,RRIRNRPPRLPRPRPRPAVHPRP,-0.0211
10,RRIRNRPPRLPRPRPRPAVPPRP,-0.165
11,RRIRNRPPRLPRPRPRPAYPPRP,0.0183
12,RRIRNRPPRLPRPRPRPAYQPRP,-0.146
13,RRIRNRPPRLPRPRPRPCCYPRP,-0.0141
14,RRIRNRPPRLPRPRPRPCDVPRP,0.0235
15,RRIRNRPPRLPRPRPRPCETPRP,-0.0224
16,RRIRNRPPRLPRPRPRPCGWPRP,0.0822
17,RRIRNRPPRLPRPRPRPCHIPRP,-0.366
18,RRIRNRPPRLPRPRPRPCKYPRP,-1.14
19,RRIRNRPPRLPRPRPRPCLPPRP,-0.217
20,RRIRNRPPRLPRPRPRPCMCPRP,0.0188
21,RRIRNRPPRLPRPRPRPCNCPRP,-0.00865
22,RRIRNRPPRLPRPRPRPCNQPRP,0.0223

row,Sequence,shrunken log2 fold change
1,RRIRNRPPRLPRPRPRPCPAPRP,0.203
2,RRIRNRPPRLPRPRPRPCSEPRP,-0.231
3,RRIRNRPPRLPRPRPRPCSRPRP,-0.0877
4,RRIRNRPPRLPRPRPRPCWNPRP,-0.429
5,RRIRNRPPRLPRPRPRPCYFPRP,-0.408
6,RRIRNRPPRLPRPRPRPDAHPRP,0.0677
7,RRIRNRPPRLPRPRPRPDARPRP,0.222
8,RRIRNRPPRLPRPRPRPDCRPRP,-0.119
9,RRIRNRPPRLPRPRPRPDCSPRP,-0.224
10,RRIRNRPPRLPRPRPRPDEAPRP,0.27
11,RRIRNRPPRLPRPRPRPDEMPRP,-0.00822
12,RRIRNRPPRLPRPRPRPDFFPRP,-0.138
13,RRIRNRPPRLPRPRPRPDFYPRP,-0.24
14,RRIRNRPPRLPRPRPRPDHTPRP,-0.0123
15,RRIRNRPPRLPRPRPRPDIIPRP,-0.0869
16,RRIRNRPPRLPRPRPRPDLNPRP,0.274
17,RRIRNRPPRLPRPRPRPDMDPRP,-0.0127
18,RRIRNRPPRLPRPRPRPDMQPRP,-0.0295
19,RRIRNRPPRLPRPRPRPDNPPRP,-0.168
20,RRIRNRPPRLPRPRPRPDPCPRP,-0.145
21,RRIRNRPPRLPRPRPRPDPPPRP,0.143
22,RRIRNRPPRLPRPRPRPDRDPRP,0.0416

row,Sequence,shrunken log2 fold change
1,RRIRNRPPRLPRPRPRPDSWPRP,-0.125
2,RRIRNRPPRLPRPRPRPDTCPRP,-0.279
3,RRIRNRPPRLPRPRPRPDWKPRP,-0.11
4,RRIRNRPPRLPRPRPRPDYKPRP,0.0574
5,RRIRNRPPRLPRPRPRPEDCPRP,-0.00844
6,RRIRNRPPRLPRPRPRPEEVPRP,-0.00192
7,RRIRNRPPRLPRPRPRPEFEPRP,0.114
8,RRIRNRPPRLPRPRPRPEFPPRP,0.0125
9,RRIRNRPPRLPRPRPRPEIWPRP,0.0992
10,RRIRNRPPRLPRPRPRPEKAPRP,-0.0149
11,RRIRNRPPRLPRPRPRPEKLPRP,-0.00804
12,RRIRNRPPRLPRPRPRPELIPRP,-0.0327
13,RRIRNRPPRLPRPRPRPEMYPRP,-0.0311
14,RRIRNRPPRLPRPRPRPENIPRP,-0.435
15,RRIRNRPPRLPRPRPRPENKPRP,-0.0669
16,RRIRNRPPRLPRPRPRPEQVPRP,0.0249
17,RRIRNRPPRLPRPRPRPEQYPRP,-0.153
18,RRIRNRPPRLPRPRPRPEREPRP,0.256
19,RRIRNRPPRLPRPRPRPERGPRP,0.296
20,RRIRNRPPRLPRPRPRPERVPRP,0.11
21,RRIRNRPPRLPRPRPRPESGPRP,-0.0271
